System: mussel adhesive protein fp-151
Sequence (chain, as listed by the source): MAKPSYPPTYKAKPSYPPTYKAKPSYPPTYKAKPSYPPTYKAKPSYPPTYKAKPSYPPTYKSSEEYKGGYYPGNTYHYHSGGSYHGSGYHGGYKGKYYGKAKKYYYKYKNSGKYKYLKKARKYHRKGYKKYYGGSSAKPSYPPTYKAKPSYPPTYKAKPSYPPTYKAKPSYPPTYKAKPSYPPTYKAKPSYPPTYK

## alkaline phosphatase
  activity of alkaline phosphatase remaining on the nanofiber (conversion of pNPP, absorbance at 405 nm): alkaline phosphatase is coated only on PCL/fp-151 nanofiber to exhibit the activity

Source: patent US20130052712
